These results are taken from PMC8556260.

Assay [1] deals with PIR91 ribosome-bound nascent chain (full-length PIR RNC, wild type) (UniProt O88900). In words: cross-linking; titration of resuspended PIR91 RNCs with DnaK/DnaJ/GrpE (5:1:2, up to 50/10/25 µM), ADP, 50 mM KCl, 5 mM Mg2+, then EDC 80 mM, 30 min, 30 °C; fraction cross-linked to DnaK fitted to a two-state model; apparent.
For assay [2] the target is unchanged. In words: cross-linking; titration of resuspended PIR91 RNCs with TF (up to 40 µM), 10 min on ice, then EDC 80 mM, 30 min, 30 °C; standard resuspension buffer, 10 mM Mg(OAc)2, pH 7.0; fraction cross-linked fitted to a two-state model; apparent.

In the case of “E. coli Hsp70 (DnaK), purified, ADP-bound, added as K/J/E mixture (from UniProt P0A6Y8 1-638) (natural protein)”, in assay [1], the Kd was found to be 109 µM.

Consider “Trigger factor (TF), purified wild type (from UniProt P0A850 1-432) (natural protein)”, for which the Kd in assay [2] was determined as 3.8 µM.
